Several values for one entry are separate records, joined by “and”; a condition that tells them apart may be missing. Equal values may be shown once.
How the values were obtained:
[1] = molecular target: EGFR (腫瘍細胞上) (UniProt P00533 25-1210, limits assumed); assay: cell-based or functional assay
[2] = molecular target: T1, ヒトEGFR (プレート被覆) (human, UniProt P00533 25-645); assay: direct binding ELISA on immobilised EGFR (ED50: antibody concentration giving 50% of maximal binding)
T1 construct: extracellular domain; 'Extracellular domain' in the legend is read as applying to both EGFR and IGFR; also called 固定化EGFR

[3] = molecular target: T2, IGFR 細胞外ドメイン (プレート被覆) (human, UniProt P08069 31-935); assay: direct binding ELISA on immobilised IGFR (ED50: antibody concentration giving 50% of maximal binding)
T2 construct: extracellular domain; 'ヒト' in the legend is read as applying to both EGFR and IGFR; also called 固定化IGFR; IGF-IR

Binder	DiFi細胞の増殖阻害 IC50 (MTT) [1] [nM]	EC50 [2]	EC50 [3]
IMC-11F8 (antibody, V domains shown) VH: QVQLQESGPGLVKPSQTLSLTCTVSGGSISSGDYYWSWIRQPPGKGLEWIGYIYYSGSTDYNPSLKSRVTMSVDTSKNQFSLKVNSVTAADTAVYYCARVSIFGVGTFDYWGQGTLVTVSS VL: EIVMTQSPATLSLSPGERATLSCRASQSVSSYLAWYQQKPGQAPRLLIYDASNRATGIPARFSGSGSGTDFTLTISSLEPEDFAVYYCHQYGSTPLTFGGGTKAEIK	~1		
抗-EGFR/抗-IGFR ジ-ダイアボディ (bispecific antibody) chain 1: QVQLQESGPGLVKPSQTLSLTCTVSGGSISSGDYYWSWIRQPPGKGLEWIGYIYYSGSTDYNPSLKSRVTMSVDTSKNQFSLKVNSVTAADTAVYYCARVSIFGVGTFDYWGQGTLVTVSS chain 2: EIVMTQSPATLSLSPGERATLSCRASQSVSSYLAWYQQKPGQAPRLLIYDASNRATGIPARFSGSGSGTDFTLTISSLEPEDFAVYYCHQYGSTPLTFGGGTKAEIK chain 3: EVQLVQSGAEVKKPGSSVKVSCKASGGTFSSYAISWVRQAPGQGLEWMGGIIPIFGTANYAQKFQGRVTITADKSTSTAYMELSSLRSEDTAVYYCARAPLRFLEWSTQDHYYYYYMDVWGKGTTVTVSS chain 4: SSELTQDPAVSVALGQTVRITCQGDSLRSYYASWYQQKPGQAPVLVIYGKNNRPSGIPDRFSGSSSGNTASLTITGAQAEDEADYYCNSRDNSDNRLIFGGGTKLTVL	25	0.1 nM and 0.2 nM	0.25 nM and 0.5 nM
IMC-A12 (antibody, V domains shown) VH: EVQLVQSGAEVKKPGSSVKVSCKASGGTFSSYAISWVRQAPGQGLEWMGGIIPIFGTANYAQKFQGRVTITADKSTSTAYMELSSLRSEDTAVYYCARAPLRFLEWSTQDHYYYYYMDVWGKGTTVTVSS VL: SSELTQDPAVSVALGQTVRITCQGDSLRSYYASWYQQKPGQAPVLVIYGKNNRPSGIPDRFSGSSSGNTASLTITGAQAEDEADYYCNSRDNSDNRLIFGGGTKLTVL			0.1 nM

Source: patent JP2008512352A (dated 2008)
